# T1: His-tagged recombinant human ANG-2 (AcroBiosystems, Cat #AN2-H52H4) (human, UniProt O15123 275-496)
# T1 construct: also called rhANG-2; rhANG-2-His; not shown: His tag
# T1 sequence (looked up): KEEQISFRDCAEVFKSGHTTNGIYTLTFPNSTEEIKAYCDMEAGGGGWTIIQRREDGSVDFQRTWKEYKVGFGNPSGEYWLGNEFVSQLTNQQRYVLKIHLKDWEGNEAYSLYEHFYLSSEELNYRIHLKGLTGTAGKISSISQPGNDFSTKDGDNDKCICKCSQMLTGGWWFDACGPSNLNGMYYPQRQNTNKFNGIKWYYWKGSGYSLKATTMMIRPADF
# Tests used:
# [1] = target: T2, Recombinant human VEGF165 (Peprotech, Cat #100-20) (human, UniProt P15692-4 27-191); assay: ELISA on rhVEGF165; biotinylated anti-VpreB antibody and streptavidin-HRP detection
# T2 construct: Bought protein; also called rhVEGF165; rh VEGF165
# [2] = target: T1, His-tagged recombinant human ANG-2 …; assay: ELISA on rhANG-2; biotinylated anti-VpreB antibody and streptavidin-HRP detection
# Description: SgG1 was diluted in blocking buffer at a starting concentration of 10 nM. Sab and scSv were diluted in blocking buffer at a starting concentration of 100 nM. They were then 1:3 serial diluted.
# T2 sequence (P15692 other isoform, or with tags, fused parts or gaps limits assumed): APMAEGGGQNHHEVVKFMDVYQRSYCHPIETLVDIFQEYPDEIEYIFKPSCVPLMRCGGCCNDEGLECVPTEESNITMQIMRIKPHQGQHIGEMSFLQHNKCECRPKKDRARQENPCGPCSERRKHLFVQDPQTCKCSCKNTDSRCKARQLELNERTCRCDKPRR
Binder,EC50 [1],EC50 [2]
"RP-014_VEGF-A_Sab (Fab, V domains shown, also called anti-VEGF-A Sab; not shown: CH1 domain) VH: QVQLVQSGAEVKKPGASVKVSCKASGYTFSIYTIHWVRQAPGQGLEWMGGINPYNGNTKYAQKFQGRVTMTRDTSISTAYMELSRLRSDDTAVYYCAKAPAVFWWTGLDYWGQGTLVTVSS VL: QPVLHQPPAMSSALGTTIRLTCTLRNDHDIGVYSVYWYQQRPGHPPRFLLRYFSQSDKSQGPQVPPRFSGSKDVARNRGYLSISELQPEDEAMYYCAMGARSSVTHVFGSGTQLTVLS",0.0063 nM,–
"RP-017_ANG-2_Sab (Fab, V domains shown, also called anti-ANG-2 Sab; not shown: CH1 domain) VH: EVQLVESGGGLVKPGGSLRLSCAASGFTFSSYGMHWVRQAPGKGLEWVAGISADSGDKNYADSVKGRFTISRDNAKNSLYLQMNSLRAEDTAVYYCAKEFISWIYTFDYLDYWGQGTLVTVSS VL: QPVLHQPPAMSSALGTTIRLTCTLRNDHDIGVYSVYWYQQRPGHPPRFLLRYFSQSDKSQGPQVPPRFSGSKDVARNRGYLSISELQPEDEAMYYCAMGARSSVTHVFGSGTQLTVLS",–,0.0485 nM

# From US20250250330A1 (REVOPSIS THERAPEUTICS, published 2025)
